Experimental data from US20250304927A1, “PRO-PEPTIDE VARIANTS FOR MODULATING ACTIVITY OF TRANSGLUTAMINASES” (CURIE CO. INC., priority 2022, published 2025).

System: E. coli ATCC 8739
Assay: MIC determination of bacterial cultures (OD600)
Type: cell-based
Details: E. coli ATCC 8739, Mueller Hinton broth
Description: E. coli ATCC 8739 and C. albicans ATCC 10231 were acquired from the American Type Culture Collection (ATCC) (Manassas, VA) and maintained as −80° C. frozen glycerol stocks.
For Minimum Inhibitor Concentration (MIC) determination of bacterial cultures, E. coli ATCC 8739 was grown overnight (16-18 hours) in Mueller Hinton broth at 37° C. The following day, the cell density of the saturated cultures was calculated using OD600 and cultures were diluted to 10^4 to 10^6 CFU/mL in sterile Mueller Hinton broth to generate the inoculum, and 100 μL of the inoculum was combined with 100 μL of serially diluted transglutaminase variant at a range of 0.0001-0.05 weight percent. Growth curves were measured by OD600 on a BioTek® Synergy Plate Reader. All test conditions were performed in triplicate. MIC was determined to be 50 ppm (0.005% w/v) against E. coli for the enzyme described in SEQ ID NO: 5 using OD600.

B1: SEQ ID NO: 3: thermostable variant of Streptomyces mobaraensis transglutaminase (protein)
chain: MDPDDRVTPPAEPLDRMPDPYRPSYGRAETVVNNYIRKWQQVYSHRDGRKQQMTEEQREWLSYGCVGVTWVNSGQYPTNRLAFASFDEDRFKNELKNGRPRSGETRAEFEGRVAKESFDEEKGFQRAREVASVMNRALENAHDESAYLDNLKKELANGNDALRNEDARSPFYSALRNTPSFKERNGGNHDPSRMKAVIYSKHFWSGQDRSSSADKRKYGDPDAFRPAPGTGLVDMSRDRNIPRSPTSPGEGFVNFDYGWFGAQTEADADKTVWTHGNHYHAPNGSLGAMHVYESKFRNWSEGYSDFDRGAYVITFIPKSWNTAPDKVKQGWP
- MIC: outside the range of detection
